B1: MAC-RBM41-WT [human] / DEAH-box RNA helicase DHX8 [human (endogenous in Flp-In T-REx 293)] (parent)
chain 1: MKRVNSCVKSDEHVLEELETEGERQLKSLLQHQLDTSVSIEECMSKKESFAPGTMYKPFGKEAAGTMTLSQFQTLHEKDQETASLRELGLNETEILIWKSHVSGEKKTKLRATPEAIQNRLQDIEERISERQRILCLPQRFAKSKQLTRREMEIEKSLFQGADRHSFLKALYYQDEPQKKNKGDPMNNLESFYQEMIMKKRLEEFQLMRGEPFASHSLVSATSVGDSGTAESPSLLQDKGKQAAQGKGPSLHVANVIDFSPEQCWTGPKKLTQPIEFVPEDEIQRNRLSEEEIRKIPMFSSYNPGEPNKVLYLKNLSPRVTERDLVSLFARFQEKKGPPIQFRMMTGRMRGQAFITFPNKEIAWQALHLVNGYKLHGKILVIEFGKNKKQRSNLQATSLISCATGSTTEISGS
chain 2: MAVAVAMAGALIGSEPGPAEELAKLEYLSLVSKVCTELDNHLGINDKDLAEFVISLAEKNTTFDTFKASLVKNGAEFTDSLISNLLRLIQTMRPPAKPSTSKDPVVKPKTEKEKLKELFPVLCQPDNPSVRTMLDEDDVKVAVDVLKELEALMPSAAGQEKQRDAEHRDRTKKKKRSRSRDRNRDRDRDRERNRDRDHKRRHRSRSRSRSRTRERNKVKSRYRSRSRSQSPPKDRKDRDKYGERNLDRWRDKHVDRPPPEEPTIGDIYNGKVTSIMQFGCFVQLEGLRKRWEGLVHISELRREGRVANVADVVSKGQRVKVKVLSFTGTKTSLSMKDVDQETGEDLNPNRRRNLVGETNEETSMRNPDRPTHLSLVSAPEVEDDSLERKRLTRISDPEKWEIKQMIAANVLSKEEFPDFDEETGILPKVDDEEDEDLEIELVEEEPPFLRGHTKQSMDMSPIKIVKNPDGSLSQAAMMQSALAKERRELKQAQREAEMDSIPMGLNKHWVDPLPDAEGRQIAANMRGIGMMPNDIPEWKKHAFGGNKASYGKKTQMSILEQRESLPIYKLKEQLVQAVHDNQILIVIGETGSGKTTQITQYLAEAGYTSRGKIGCTQPRRVAAMSVAKRVSEEFGCCLGQEVGYTIRFEDCTSPETVIKYMTDGMLLRECLIDPDLTQYAIIMLDEAHERTIHTDVLFGLLKKTVQKRQDMKLIVTSATLDAVKFSQYFYEAPIFTIPGRTYPVEILYTKEPETDYLDASLITVMQIHLTEPPGDILVFLTGQEEIDTACEILYERMKSLGPDVPELIILPVYSALPSEMQTRIFDPAPPGSRKVVIATNIAETSLTIDGIYYVVDPGFVKQKVYNSKTGIDQLVVTPISQAQAKQRAGRAGRTGPGKCYRLYTERAYRDEMLTTNVPEIQRTNLASTVLSLKAMGINDLLSFDFMDAPPMETLITAMEQLYTLGALDDEGLLTRLGRRMAEFPLEPMLCKMLIMSVHLGCSEEMLTIVSMLSVQNVFYRPKDKQALADQKKAKFHQTEGDHLTLLAVYNSWKNNKFSNPWCYENFIQARSLRRAQDIRKQMLGIMDRHKLDVVSCGKSTVRVQKAICSGFFRNAAKKDPQEGYRTLIDQQVVYIHPSSALFNRQPEWVVYHELVLTTKEYMREVTTIDPRWLVEFAPAFFKVSDPTKLSKQKKQQRLEPLYNRYEEPNAWRISRAFRRR

Variants of: B1
Test: BioID proximity labeling (mass spectrometry spectral counts)
Details: with DEAH-box RNA helicase DHX8 [human (endogenous in Flp-In T-REx 293)]; MAC-tagged protein expression induced with tetracycline in the presence of biotin for 24 h; three independent replicates; parent: 23; read off a plot
chain 1 Y312A F354A showed a response (spectral count) of 23. chain 1 Q352A showed a response (spectral count) of 23. Work on chain 1 Y312A yielded a response (spectral count) of 19. In the case of chain 1 F354A, the response (spectral count) is reported as 19.

— publication PMC11039992
